Results from patent US20240270821A1, “GIP/GLP1/GCG TRI-RECEPTOR AGONISTS AND USES THEREOF” (priority 2023, published 2024).
Residue numbers refer to the chain shown, from its start.

B1: Example 40 (peptide)
chain: YXQGTFTSDFSKXLDKKAQXAFIEWLIEGGPSSGAPPPSEG
modifications: Aib, αMeL; lysine acylated; C-terminal amide; synthetic construct; SITE 2: note = 2-Aminoisobutyric Acid; SITE 13: note = alpha-methyl-leucine; SITE 17: note = Lysine is chemically modified through conjugation of the epsilon-amino group of the Lysine side chain with (2-[2-(2-Amino-ethoxy)-ethoxy]-acetyl)-(gamma-Glu)-CO-(CH2) 18-CO2H; SITE 20: n
B2: Example 436 (peptide)
chain: YXQGTXTSDXXIXLDXKAQXSFIEXLIEGGPSSGEPPPE
modifications: synthetic construct; SITE 2: note = 2-Aminoisobutyric Acid; SITE 6: note = alpha-methyl-2-fluoro-L-phenylalanine; SITE 10: note = 3-(4-Pyridyl)-L-alanine; SITE 11: note = alpha-methyl-L-serine; SITE 13: note = alpha-methyl-leucine; SITE 16: note = L-ornithine; SITE 17: note = Lysine is chemically mo
B3: Example 460 (peptide)
chain: B2 chain with S21X, X25Y, I27L
modifications: synthetic construct; SITE 2: note = 2-Aminoisobutyric Acid; SITE 6: note = alpha-methyl-2-fluoro-L-phenylalanine; SITE 10: note = 3-(4-Pyridyl)-L-alanine; SITE 11: note = alpha-methyl-L-serine; SITE 13: note = alpha-methyl-leucine; SITE 16: note = L-ornithine; SITE 17: note = Lysine is chemically mo
B4: Example 449 (peptide)
chain: B2 chain with S21N, X25Y
modifications: synthetic construct; SITE 2: note = 2-Aminoisobutyric Acid; SITE 6: note = alpha-methyl-2-fluoro-L-phenylalanine; SITE 10: note = 3-(4-Pyridyl)-L-alanine; SITE 11: note = alpha-methyl-L-serine; SITE 13: note = alpha-methyl-leucine; SITE 16: note = L-ornithine; SITE 17: note = Lysine is chemically mo
B5: Example 453 (peptide)
chain: B2 chain with S21X
modifications: synthetic construct; SITE 2: note = 2-Aminoisobutyric Acid; SITE 6: note = alpha-methyl-2-fluoro-L-phenylalanine; SITE 10: note = 3-(4-Pyridyl)-L-alanine; SITE 11: note = alpha-methyl-L-serine; SITE 13: note = alpha-methyl-leucine; SITE 16: note = L-ornithine; SITE 17: note = Lysine is chemically mo
B6: Example 439 (peptide)
chain: B2 chain with S21X, I27Q
modifications: synthetic construct; SITE 2: note = 2-Aminoisobutyric Acid; SITE 6: note = alpha-methyl-2-fluoro-L-phenylalanine; SITE 10: note = 3-(4-Pyridyl)-L-alanine; SITE 11: note = alpha-methyl-L-serine; SITE 13: note = alpha-methyl-leucine; SITE 16: note = L-ornithine; SITE 17: note = Lysine is chemically mo
B7: Example 437 (peptide)
chain: B2 chain with S21X, I27A
modifications: synthetic construct; SITE 2: note = 2-Aminoisobutyric Acid; SITE 6: note = alpha-methyl-2-fluoro-L-phenylalanine; SITE 10: note = 3-(4-Pyridyl)-L-alanine; SITE 11: note = alpha-methyl-L-serine; SITE 13: note = alpha-methyl-leucine; SITE 16: note = L-ornithine; SITE 17: note = Lysine is chemically mo
B8: Example 438 (peptide)
chain: B2 chain with S21X, I27S
modifications: synthetic construct; SITE 2: note = 2-Aminoisobutyric Acid; SITE 6: note = alpha-methyl-2-fluoro-L-phenylalanine; SITE 10: note = 3-(4-Pyridyl)-L-alanine; SITE 11: note = alpha-methyl-L-serine; SITE 13: note = alpha-methyl-leucine; SITE 16: note = L-ornithine; SITE 17: note = Lysine is chemically mo
B9: Example 447 (peptide)
chain: B2 chain with I12E, S21X
modifications: synthetic construct; SITE 2: note = 2-Aminoisobutyric Acid; SITE 6: note = alpha-methyl-2-fluoro-L-phenylalanine; SITE 10: note = 3-(4-Pyridyl)-L-alanine; SITE 11: note = alpha-methyl-L-serine; SITE 13: note = alpha-methyl-leucine; SITE 16: note = L-ornithine; SITE 17: note = Lysine is chemically mo
B10: Example 457 (peptide)
chain: B2 chain with S21T
modifications: synthetic construct; SITE 2: note = 2-Aminoisobutyric Acid; SITE 6: note = alpha-methyl-2-fluoro-L-phenylalanine; SITE 10: note = 3-(4-Pyridyl)-L-alanine; SITE 11: note = alpha-methyl-L-serine; SITE 13: note = alpha-methyl-leucine; SITE 16: note = L-ornithine; SITE 17: note = Lysine is chemically mo

Biological target: hGLP-1R (Homo sapiens, UniProt P43220)
Test: cell-based or functional assay

Sequence of hGLP-1R (P43220 24-463): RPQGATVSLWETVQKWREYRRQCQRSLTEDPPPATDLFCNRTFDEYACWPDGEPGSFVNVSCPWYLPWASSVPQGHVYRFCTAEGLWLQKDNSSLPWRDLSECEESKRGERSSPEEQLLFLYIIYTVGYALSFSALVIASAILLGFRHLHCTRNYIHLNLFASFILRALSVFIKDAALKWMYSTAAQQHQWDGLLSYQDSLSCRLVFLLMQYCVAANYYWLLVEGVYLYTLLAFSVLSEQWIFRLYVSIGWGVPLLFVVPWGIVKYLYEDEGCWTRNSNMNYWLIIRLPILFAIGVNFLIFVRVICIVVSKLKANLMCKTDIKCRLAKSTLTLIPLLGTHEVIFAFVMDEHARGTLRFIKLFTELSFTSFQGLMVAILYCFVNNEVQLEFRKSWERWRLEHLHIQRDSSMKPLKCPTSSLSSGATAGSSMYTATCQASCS

Binder | Relative cAMP EC50 | cAMP Rel EC50 (in the presence of 1% HSA) | cAMP Rel EC50, nM (1% HSA) | Relative cAMP EC50, nM (0.1% casein) | cAMP Rel EC50 (receptor-expressing HEK-293 cells, 1% HSA)
B1 | 0.693 nM | 138 nM |  |  | 
B2 | 0.173 nM |  | 11.7 nM |  | 
B3 |  |  |  | 0.636 nM | 31.1 nM
B4 |  |  |  | 0.568 nM | 18.9 nM
B5 |  |  |  | 0.374 nM | 20.6 nM
B6 | 0.293 nM |  | 15.1 nM |  | 
B7 | 0.421 nM |  | 26.9 nM |  | 
B8 | 0.815 nM |  | 41.1 nM |  | 
B9 |  |  |  | 0.214 nM | 11.3 nM
B10 |  |  |  | 0.226 nM | 11.7 nM

Biological target: T1, human GIP receptor (human) (UniProt P48546)
T1 sequence (looked up): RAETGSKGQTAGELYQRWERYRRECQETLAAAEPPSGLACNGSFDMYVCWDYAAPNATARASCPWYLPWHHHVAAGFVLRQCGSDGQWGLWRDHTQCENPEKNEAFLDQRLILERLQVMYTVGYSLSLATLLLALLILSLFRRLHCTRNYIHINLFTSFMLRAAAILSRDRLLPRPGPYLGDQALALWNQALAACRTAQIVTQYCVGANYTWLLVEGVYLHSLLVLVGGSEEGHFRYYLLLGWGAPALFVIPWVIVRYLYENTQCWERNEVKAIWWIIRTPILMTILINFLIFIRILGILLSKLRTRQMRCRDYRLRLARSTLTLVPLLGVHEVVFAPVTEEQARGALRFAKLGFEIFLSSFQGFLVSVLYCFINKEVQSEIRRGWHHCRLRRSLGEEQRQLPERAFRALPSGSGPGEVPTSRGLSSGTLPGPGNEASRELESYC
Test: cell-based or functional assay

Binder | Relative cAMP EC50 | cAMP Rel EC50 (in the presence of 1% HSA) | cAMP Rel EC50, nM (1% HSA) | Relative cAMP EC50, nM (0.1% casein) | cAMP Rel EC50 (receptor-expressing HEK-293 cells, 1% HSA)
B1 | 0.139 nM | 76.7 nM |  |  | 
B2 | 0.0294 nM |  | 1.18 nM |  | 
B3 |  |  |  | 0.0624 nM | 8.93 nM
B4 |  |  |  | 0.0205 nM | 1.66 nM
B5 |  |  |  | 0.0184 nM | 1.95 nM
B6 | 0.0634 nM |  | 14.6 nM |  | 
B7 | 0.0872 nM |  | 16.9 nM |  | 
B8 | 0.225 nM |  | 53.8 nM |  | 
B9 |  |  |  | 0.0177 nM | 1.81 nM
B10 |  |  |  | 0.00918 nM | 0.881 nM

Biological target: human glucagon receptor (human) (UniProt P47871)
Test: cell-based or functional assay

Sequence of human glucagon receptor (human) (P47871 26-477): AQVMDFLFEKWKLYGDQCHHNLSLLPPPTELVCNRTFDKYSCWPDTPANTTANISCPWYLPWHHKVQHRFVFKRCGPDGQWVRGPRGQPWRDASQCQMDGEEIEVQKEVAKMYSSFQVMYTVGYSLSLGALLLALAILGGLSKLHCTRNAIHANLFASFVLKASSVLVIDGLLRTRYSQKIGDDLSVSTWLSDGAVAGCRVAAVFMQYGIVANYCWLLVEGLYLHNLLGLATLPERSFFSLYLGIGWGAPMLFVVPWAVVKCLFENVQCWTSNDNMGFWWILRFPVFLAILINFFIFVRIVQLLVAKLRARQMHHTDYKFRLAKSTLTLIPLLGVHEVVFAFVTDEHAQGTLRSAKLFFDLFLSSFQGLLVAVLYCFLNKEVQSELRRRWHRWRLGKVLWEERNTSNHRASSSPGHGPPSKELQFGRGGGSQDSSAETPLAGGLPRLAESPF

Binder | Relative cAMP EC50 | cAMP Rel EC50 (in the presence of 1% HSA) | cAMP Rel EC50, nM (1% HSA) | Relative cAMP EC50, nM (0.1% casein) | cAMP Rel EC50 (receptor-expressing HEK-293 cells, 1% HSA)
B1 | 12.3 nM | 2750 nM |  |  | 
B2 | 2.27 nM |  | 182 nM |  | 
B3 |  |  |  | 1.89 nM | 142 nM
B4 |  |  |  | 11.5 nM | 424 nM
B5 |  |  |  | 7.37 nM | 261 nM
B6 | 4.38 nM |  | 165 nM |  | 
B7 | 1.76 nM |  | 188 nM |  | 
B8 | 3.62 nM |  | 431 nM |  | 
B9 |  |  |  | 9.71 nM | 1090 nM
B10 |  |  |  | 2.86 nM | 333 nM
